Measured values published in patent US20250320312A1 (OXITOPE PHARMA B V, published 2025).

T1: Peptide 4: Biotin-AGGGGSGGGGSGGGGSAAA-Tyr-acid (N-terminal biotin; C-terminal acid)
T1 construct: control peptide without PC
T1 peptide: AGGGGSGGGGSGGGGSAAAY

T2: Peptide 8: Biotin-AEAAAKEAAAKEAAAKEAAAKAAA-Tyr-acid (N-terminal biotin; C-terminal acid)
T2 construct: control peptide without PC
T2 peptide: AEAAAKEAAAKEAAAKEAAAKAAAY

B1: PcOxP_DB02_D10 (scFv, V domains shown)
VH: EVQLLESGGGLVQPGGSLRLSCAASGFTFSDQYMEWVRQAPGKGLEWVAASRNKANDYTTEYADSVKGRFTISRDNSKNTLYLQMNSLRAEDTAVYYCARDYYGSSYWYFDVWGQGTLVTVSS
VL: DIQMTQSPSSLSASVGDRVTITCTATESLYSSKHKVHYLAWYQQKPGKAPKLLIYGASNRYTGVPSRFSGSGSGTDFTLTISSLQPEDFATYYCAQFYSYPLTFGGGTKVEIK
notes: scFv in periplasmic extract
B2: PcOxP_DB02_F02 (scFv, V domains shown)
VH: EVQLLESGGGLVQPGGSLRLSCAASGFTFSDFYMEWVRQAPGKGLEWVAASRNKANDYTTEYADSVKGRFTISRDNSKNTLYLQMNSLRAEDTAVYYCARDYYGSSYWYFDVWGQGTLVTVSS
VL: DIQMTQSPSSLSASVGDRVTITCFASESLYSSKHKVHYLAWYQQKPGKAPKLLIYGASNRGIGVPSRFSGSGSGTDFTLTISSLQPEDFATYYCAQFYSYPLTFGGGTKVEIK
notes: scFv in periplasmic extract
B3: PcOxP_DB02_E10 (scFv, V domains shown)
VH: EVQLLESGGGLVQPGGSLRLSCAASGFTFSDQYMEWVRQAPGKGLEWVAASRNKANDYQTEYADSVKGRFTISRDNSKNTLYLQMNSLRAEDTAVYYCARDYYGSSYWYFDVWGQGTLVTVSS
VL: DIQMTQSPSSLSASVGDRVTITCTASESLYSGKHKVHYLAWYQQKPGKAPKLLIYGASNLQIGVPSRFSGSGSGTDFTLTISSLQPEDFATYYCAQFYYYPLTFGGGTKVEIK
notes: scFv in periplasmic extract
B4: PcOxP_DB02_H03 (scFv, V domains shown)
VH: EVQLLESGGGLVQPGGSLRLSCAASGFTFSDFYMEWVRQAPGKGLEWVAASRNKANDYTTEYADSVKGRFTISRDNSKNTLYLQMNSLRAEDTAVYYCARDYYGSSYWYFDVWGQGTLVTVSS
VL: DIQMTQSPSSLSASVGDRVTITCTASESISSSKHKVHYLAWYQQKPGKAPKLLIYGASNLYSGVPSRFSGSGSGTDFTLTISSLQPEDFATYYCAHFYSYPLTFGGGTKVEIK
notes: scFv in periplasmic extract
B5: PcOxP_DB03_A03 (scFv, V domains shown)
VH: EVQLLESGGGLVQPGGSLRLSCAASGFTFSDFYMEWVRQAPGKGLEWVAASRNKANDYTTEYADSVKGRFTISRDNSKNTLYLQMNSLRAEDTAVYYCARDYYGSSYWYFDVWGQGTLVTVSS
VL: DIQMTQSPSSLSASVGDRVTITCTASESLYSSKHKVHYLAWYQQKPGKAPKLLIYGASFRYIGVPSRFSGSGSGTDFTLTISSLQPEDFATYYCAQFYSYPLTFGGGTKVEIK
notes: scFv in periplasmic extract
B6: PcOxP_DB02_G09 (scFv, V domains shown)
VH: EVQLLESGGGLVQPGGSLRLSCAASGFTFSDQYMEWVRQAPGKGLEWVAASRNKANDYTTEYADSVKGRFTISRDNSKNTLYLQMNSLRAEDTAVYYCARDYYGSSYWYFDVWGQGTLVTVSS
VL: DIQMTQSPSSLSASVGDRVTITCTASESLYSSKHKVHYLAWYQQKPGKAPKLLIYGASNRPIGVPSRFSGSGSGTDFTLTISSLQPEDFATYYCAQFYSYPLTFGGGTKVEIK
notes: scFv in periplasmic extract
B7: PcOxP_DB02_G07 (scFv, V domains shown)
VH: EVQLLESGGGLVQPGGSLRLSCAASGFTFSDGYMEWVRQAPGKGLEWVAASRNKANDYTTEYADSVKGRFTISRDNSKNTLYLQMNSLRAEDTAVYYCARDYYGSSYWYFDVWGQGTLVTVSS
VL: DIQMTQSPSSLSASVGDRVTITCTASESLYSSKHKVHYLAWYQQKPGKAPKLLIYGASNRYGGVPSRFSGSGSGTDFTLTISSLQPEDFATYYCAQFYSYPLTFGGGTKVEIK
notes: scFv in periplasmic extract
B8: PcOxP_DB03_A09 (scFv, V domains shown)
VH: EVQLLESGGGLVQPGGSLRLSCAASGFTFSDYYMEWVRQAPGKGLEWVAASRNKANDYTTEYADSVKGRFTISRDNSKNTLYLQMNSLRAEDTAVYYCARDYYGSSYWYFDVWGQGTLVTVSS
VL: DIQMTQSPSSLSASVGDRVTITCTASESLYSSKHKVHYLAWYQQKPGKAPKLLIYGASNRGIGVPSRFSGSGSGTDFTLTISSLQPEDFATYYCAQFYSYPLTFGGGTKVEIK
notes: scFv in periplasmic extract
B9: PcOxP_DB03_A08 (scFv, V domains shown)
VH: EVQLLESGGGLVQPGGSLRLSCAASGFTFSDVYMEWVRQAPGKGLEWVAASRNKANDYTTEYADSVKGRFTISRDNSKNTLYLQMNSLRAEDTAVYYCARDYYGSSYWYFDVWGQGTLVTVSS
VL: DIQMTQSPSSLSASVGDRVTITCTASESLYSSKHKVHYLAWYQQKPGKAPKLLIYGASNRYIGVPSRFSGSGSGTDFTLTISSLQPEDFATYYCAQFYSYPLTFGGGTKVEIK
notes: scFv in periplasmic extract
B10: PcOxP_DB03_C03 (scFv, V domains shown)
VH: EVQLLESGGGLVQPGGSLRLSCAASGFTFSDFYMEWVRQAPGKGLEWVAASRNKYNDYTTEYADSVKGRFTISRDNSKNTLYLQMNSLRAEDTAVYYCARDYYGSSYWYFDVWGQGTLVTVSS
VL: DIQMTQSPSSLSASVGDRVTITCTASESLYSSKHKVHYLAWYQQKPGKAPKLLIYGASNRYIGVPSRFSGSGSGTDFTLTISSLQPEDFATYYCAQFYSYPLTFGGGTKVEIK
notes: scFv in periplasmic extract
B11: PcOxP_DB02_F07 (scFv, V domains shown)
VH: EVQLLESGGGLVQPGGSLRLSCAASGFWFSDFYMEWVRQAPGKGLEWVAASRNKANDYTTEYADSVKGRFTISRDNSKNTLYLQMNSLRAEDTAVYYCARDYYGSSYWYFDVWGQGTLVTVSS
VL: DIQMTQSPSSLSASVGDRVTITCTASQSLYSSKNKVHYLAWYQQKPGKAPKLLIYGESNRYIGVPSRFSGSGSGTDFTLTISSLQPEDFATYYCAQFYSYPLTFGGGTKVEIK
notes: scFv in periplasmic extract
B12: PcOxP_DB02_F12 (scFv, V domains shown)
VH: EVQLLESGGGLVQPGGSLRLSCAASGFTFSDAYMEWVRQAPGKGLEWVAASRNKANDYTTEYADSVKGRFTISRDNSKNTLYLQMNSLRAEDTAVYYCARDYYGSSYWYFDVWGQGTLVTVSS
VL: DIQMTQSPSSLSASVGDRVTITCEASESLYSSKHKVHYLAWYQQKPGKAPKLLIYGASNRYPGVPSRFSGSGSGTDFTLTISSLQPEDFATYYCAQFYEYPLTFGGGTKVEIK
notes: scFv in periplasmic extract
B13: PcOxP_DB03_B02 (scFv, V domains shown)
VH: EVQLLESGGGLVQPGGSLRLSCAASGFAFSDFYMEWVRQAPGKGLEWVAASRNKANDYTTEYADSVKGRFTISRDNSKNTLYLQMNSLRAEDTAVYYCARDYYGSSYWYFDVWGQGTLVTVSS
VL: DIQMTQSPSSLSASVGDRVTITCTASESLYSSKHKVHYLAWYQQKPGKAPKLLIYGASNRYDGVPSRFSGSGSGTDFTLTISSLQPEDFATYYCAQFYEYPLTFGGGTKVEIK
notes: scFv in periplasmic extract
B14: PcOxP_DB03_A11 (scFv, V domains shown)
VH: EVQLLESGGGLVQPGGSLRLSCAASGFTFSSYYMEWVRQAPGKGLEWVAASRNQANDYTTEYADSVKGRFTISRDNSKNTLYLQMNSLRAEDTAVYYCARDYYGSSYWYLDVWGQGTLVTVSS
VL: DIQMTQSPSSLSASVGDRVTITCTASESLYSSKHKVHYLAWYQQKPGKAPKLLIYGADNRYIGVPSRFSGSGSGTDFTLTISSLQPEDFATYYCAQFYHYPLTFGGGTKVEIK
notes: scFv in periplasmic extract
B15: PcOxP_DB02_H10 (scFv, V domains shown)
VH: EVQLLESGGGLVQPGGSLRLSCAASGFTFSDYYMEWVRQAPGKGLEWVAASRNKANDYTTEYADSVKGRFTISRDNSKNTLYLQMNSLRAEDTAVYYCARDYYGSSYWYFDVWGQGTLVTVSS
VL: DIQMTQSPSSLSASVGDRVTITCTASESLYSSKHKVHYLAWYQQKPGKAPKLLIYGAGNRYIGVPSRFSGSGSGTDFTLTISSLQPEDFATYYCAQFYEYPLTFGGGTKVEIK
notes: scFv in periplasmic extract
B16: PcOxP_DB02_G06 (scFv, V domains shown)
VH: EVQLLESGGGLVQPGGSLRLSCAASGFTFSSYYMEWVRQAPGKGLEWVAASRNQANDYTTEYADSVKGRFTISRDNSKNTLYLQMNSLRAEDTAVYYCARDYYGSPYWYFDVWGQGTLVTVSS
VL: DIQMTQSPSSLSASVGDRVTITCTASESLYSSKHKVHYLAWYQQKPGKAPKLLIYGVSNRYIGVPSRFSGSGSGTDFTLTISSLQPEDFATYYCAQFYSYPLTFGGGTKVEIK
notes: scFv in periplasmic extract
B17: PcOxP_DB02_E01 (scFv, V domains shown)
VH: EVQLLESGGGLVQPGGSLRLSCAASGFTFSDQYMEWVRQAPGKGLEWVAASRNKANDYTTEYADSVKGRFTISRDNSKNTLYLQMNSLRAEDTAVYYCARDYYGSSYWYFDVWGQGTLVTVSS
VL: DIQMTQSPSSLSASVGDRVTITCTASESLYSSKHKVHYLAWYQQKPGKAPKLLIYGASGRYIGVPSRFSGSGSGTDFTLTISSLQPEDFATYYCAQFYSYPLTFGGGTKVEIK
notes: scFv in periplasmic extract

Tests used:
Experiment in all cases: scFv ELISA
BSA = BSA (UniProt P02769)
[1] = molecular target: Peptide 1: Biotin-…-[Tyr(PC)]-acid
[2] = molecular target: Peptide 5: Biotin-…-[Tyr(PC)]-acid
[3] = molecular target: T1, Peptide 4: …
Summary of the method: (§1)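 Bound scFv was read as OD450 after HRP–anti-V5 detection, TMB development and HCl stop. PPE with BSA was incubated 1 h at RT on BSA-blocked wells coated overnight at 4° C. with peptide, or on streptavidin wells loaded 1 h with biotinylated PC-peptides at 1 μg/mL.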

[4] = molecular target: T2, Peptide 8: …
Summary of the method: as §1

BSA, sequence (P02769 25-607 limits assumed): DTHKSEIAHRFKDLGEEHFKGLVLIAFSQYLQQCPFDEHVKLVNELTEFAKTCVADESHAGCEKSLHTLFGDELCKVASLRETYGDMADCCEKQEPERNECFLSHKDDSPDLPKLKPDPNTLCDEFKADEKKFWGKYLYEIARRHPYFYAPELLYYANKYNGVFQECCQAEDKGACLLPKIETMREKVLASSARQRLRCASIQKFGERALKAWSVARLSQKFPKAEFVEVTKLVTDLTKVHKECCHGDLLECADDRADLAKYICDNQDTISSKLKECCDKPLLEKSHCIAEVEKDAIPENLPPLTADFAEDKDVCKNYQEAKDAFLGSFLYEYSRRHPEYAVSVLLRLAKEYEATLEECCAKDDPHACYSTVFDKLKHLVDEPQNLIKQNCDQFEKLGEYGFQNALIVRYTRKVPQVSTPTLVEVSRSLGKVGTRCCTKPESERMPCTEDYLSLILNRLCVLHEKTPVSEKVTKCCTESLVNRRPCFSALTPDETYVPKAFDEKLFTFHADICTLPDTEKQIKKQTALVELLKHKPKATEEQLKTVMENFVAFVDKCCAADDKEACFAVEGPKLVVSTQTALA

Row | Binder | OD450 (BSA) | OD450 [1] | OD450 [2] | OD450 [3] | OD450 [4]
1 | B1 | 0.1 OD450 | 0.69 OD450 | 1.01 OD450 | 0.05 OD450 | 0.04 OD450
2 | B2 | 0.11 OD450 | 0.37 OD450 | 0.6 OD450 | 0.05 OD450 | 0.05 OD450
3 | B3 | 0.09 OD450 | 0.52 OD450 | 0.79 OD450 | 0.04 OD450 | 0.04 OD450
4 | B4 | 0.08 OD450 | 0.27 OD450 | 0.82 OD450 | 0.05 OD450 | 0.05 OD450
5 | B5 | 0.09 OD450 | 0.54 OD450 | 0.81 OD450 | 0.06 OD450 | 0.06 OD450
6 | B6 | 0.1 OD450 | 0.35 OD450 | 0.71 OD450 | 0.05 OD450 | 0.04 OD450
7 | B7 | 0.1 OD450 | 0.52 OD450 | 0.99 OD450 | 0.05 OD450 | 0.09 OD450
8 | B8 | 0.09 OD450 | 1.02 OD450 | 1.09 OD450 | 0.05 OD450 | 0.05 OD450
9 | B9 | 0.11 OD450 | 0.67 OD450 | 0.71 OD450 | 0.06 OD450 | 0.05 OD450
10 | B10 | 0.09 OD450 | 1.36 OD450 | 1.66 OD450 | 0.05 OD450 | 0.05 OD450
11 | B11 | 0.1 OD450 | 0.43 OD450 | 0.91 OD450 | 0.05 OD450 | 0.05 OD450
12 | B12 | 0.07 OD450 | 0.5 OD450 | 0.81 OD450 | 0.04 OD450 | 0.04 OD450
13 | B13 | 0.07 OD450 | 2.02 OD450 | 1.64 OD450 | 0.05 OD450 | 0.05 OD450
14 | B14 | 0.08 OD450 | 1.12 OD450 | 1.08 OD450 | 0.05 OD450 | 0.05 OD450
15 | B15 | 0.08 OD450 | 1.43 OD450 | 1.39 OD450 | 0.05 OD450 | 0.05 OD450
16 | B16 | 0.08 OD450 | 0.43 OD450 | 0.87 OD450 | 0.06 OD450 | 0.05 OD450
17 | B17 | 0.11 OD450 | 0.43 OD450 | 0.63 OD450 | 0.05 OD450 | 0.1 OD450
